In experiment [1] the target is T1, GST_Muc17ct_del2 (4244Ser-4390Leu) (human, UniProt Q685J3 4244-4390).
T1 construct: not shown: GST encoded by vector pGEX4T-3 (Takara Bio)
Kind of experiment: ELISA, GST fusion immobilized at 1 µg/mL. A general note: An ELISA detects its analyte on a solid surface through an enzyme-linked reagent.

Experiment [2] deals with T2, GST_Muc17ct_del3 (4115Thr-4243Gly) (human, UniProt Q685J3 4115-4243).
T2 construct: not shown: GST encoded by vector pGEX4T-3 (Takara Bio)
Kind of experiment: ELISA, GST fusion immobilized at 1 µg/mL.

Experiment [3] concerns the target T3, Muc17ct_mIgG2aFc (soluble human Muc17ct / mouse IgG2a Fc fusion protein) (human). Kind of experiment: ELISA screening of hybridoma supernatant on immobilized Muc17ct_mIgG2aFc.
Experiment [4] has as its target Mucin 17 (Muc17) on AsPc1 pancreatic cancer cells (human, UniProt Q685J3 26-4493). Kind of experiment: flow cytometry on AsPc1 cells, FITC anti-human IgG detection. (In general: Flow cytometry measures light scatter and fluorescence of single cells or particles in a stream.)
Method: Binding of the antibodies to a pancreatic cancer cell line AsPc1 was evaluated by flow cytometry. The cells were suspended in FACS buffer (1% FBS/PBS) at 5×10⁵ cells/mL and dispensed into Multiscreen-HV Filter Plates (Millipore), and the supernatant was removed by centrifugation. Anti-Muc17 antibody diluted to a suitable concentration was added and reacted for 30 minutes on ice. The cells were washed once with FACS buffer. FITC-labeled anti-human IgG antibody was added, and reacted for 30 minutes on ice. Then the supernatant was removed by centrifugation, the cell were suspended in 100 μL FACS buffer and applied to flow cytometry. Flow cytometry was run on FACS Calibur (Becton, Dickinson and Company). The viable cell population was gated with a forward scatter and side scatter histogram.
Experiment [5] addresses T3, Muc17ct_mIgG2aFc (soluble human Muc17ct …). The experiment is described as follows: ELISA, Muc17ct_mIgG2aFc coated at 1 µg/mL, anti-human kappa chain detection.
Method: Muc17ct_mIgG2aFc protein was diluted with coating buffer (0.1 mol/L NaHCO₃ (pH 9.6), 0.02% (w/v) NaN₃) to give 1 μg/mL of Muc17ct_mIgG2aFc protein, and added to an immunoplate for overnight at 4° C. for coating. The plate was blocked with dilution buffer (50 mM Tris-HCl (pH 8.1), 1 mM MgCl₂, 150 mM NaCl, 0.05% (v/v) Tween20, 0.02% (w/v) NaN₃, 1% (w/v) BSA); then the anti-Muc17 antibody was added for 1 hour at room temperature. After washing with rinse buffer (0.05% (v/v) Tween20, PBS), an alkali phosphatase-labeled anti-human κ chain antibody (Sigma, CAT#A3813) was added for 1 hour at room temperature. After washing with rinse buffer, SIGMA104 (Sigma) diluted at 1 mg/mL in the substrate buffer (50 mM NaHCO₃ (pH 9.8), 10 mM MgCl₂) was added. After color development for 1 hour at room temperature, the absorbance (405 nm, reference 655 nm) was measured using a Benchmark Plus (BIO-RAD Laboratories, Inc.).

T3 sequence (chain, as listed by the source limits assumed): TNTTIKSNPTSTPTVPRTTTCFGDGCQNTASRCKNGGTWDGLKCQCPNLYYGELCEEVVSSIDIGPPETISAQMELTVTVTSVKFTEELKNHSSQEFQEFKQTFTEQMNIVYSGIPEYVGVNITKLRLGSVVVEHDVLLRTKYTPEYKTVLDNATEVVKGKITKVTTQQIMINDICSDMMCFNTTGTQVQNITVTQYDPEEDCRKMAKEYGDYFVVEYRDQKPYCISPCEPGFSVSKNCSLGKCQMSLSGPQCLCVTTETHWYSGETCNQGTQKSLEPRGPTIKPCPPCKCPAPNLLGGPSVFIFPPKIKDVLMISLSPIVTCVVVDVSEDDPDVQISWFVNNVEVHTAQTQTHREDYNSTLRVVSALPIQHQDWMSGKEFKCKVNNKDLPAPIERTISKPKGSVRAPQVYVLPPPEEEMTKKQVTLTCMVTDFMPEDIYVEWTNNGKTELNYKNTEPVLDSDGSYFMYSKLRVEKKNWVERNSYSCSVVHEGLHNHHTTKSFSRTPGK

B1: MQ155 (antibody, IgG1, V domains shown)
VH: QVQLQQPGAELVRPGASVKLSCKASGYTFTTYWMNWVKQRPEQGLEWIGRIDPYDSETHYNQKFKDKAILTVDKSSSTAYMQLSSLTSEDSAVYYCARGPYYGTNPWFPYWGQGTLVTVSS
VL: DVQITQSPSYLAASPGETITINCRASKSISKYLAWYQEKPGKTNKLLIYSGSTLQSGIPSRFSGSGSGTDFTLTISSLEPEDFAMYYCQQHHEYPYTFGGGTKLEIK
notes: Mouse monoclonal from hybridoma, IgG1 kappa; also called anti-Muc17 antibody MQ155
With B1, the binding result in experiment [1] is reported as “no binding (tested: 3 µg/mL)”; in experiment [2] it was “no binding (tested: 3 µg/mL)”; in experiment [3], “binds”.

B2: chi.MQ155 (anti-Muc17 mouse-human chimeric antibody MQ155) (antibody, human IgG1, kappa, V domains shown)
VH: B1 VH
VL: DVQITQSPSYLAASPGETITINCRASKSISKYLAWYQEKPGKTNKLLIYSGSTLQSGIPSRFSGSGSGTDFTLTISSLEPEDFAMYYCQQHHEYPYTFGGGTKLEIKR
notes: Human IgG1 / kappa constant regions; also called chi.MQ155(DG); chi.MQ155(FTKO)
As to B2, the binding result in experiment [4] and in experiment [5] was “binds” throughout.
